assay: soluble on expression in E. coli; label from the status in PepcDB or PDB records

| Sequence | soluble on expression in E. coli |
| --- | --- |
| MGKEYPYGLLRCFVRRIGKPTDSPRMTSAPTSNQSNPAWSRDELVLALNLYLLHRNGLPGVNHPDVLALSQALNLIGNATGVSKNQSFRNANGVCMKLNNFRRWDPSYTNNGRTGLAKGNKDEQLVWLEFANDPERLAEVVAAINANVQMIPASPIDLSAADDPGFFEAEEGKVLTRVHRVRERDKKIVKRKKEEALTQHGALQCEACGFNFSQTYGADVEGVIDVHHTKPLHTLQPGDKTKLADLALLCANCHRVLHSQRKWLSVAEVKERYQANLKQIQMLEHHHHHH | soluble |
| MGKFLVQFWGVRGLIPTPSSNTSRYGGNTACVEMQVAGKRLIFDGGTGLRILGKAWQHLQQPLEAHLFFTNSQSNRIQGFPFFAPAFIAGNCFHIYGGAASNGASIKQCLCDQMLQPHFPYPLQVMQSELQFYPLTPDSEVKLDDVTIRTALINQTQRSIGYRVTWQEYSVAYVTDLNMSAEQGEREQVLQIIQDVDLLIANATYTPPTSHDHESVDLLWQAAVEMAQKAGVRKLIISHHHPDDHDDFLDQVEKEVQSTFSDALLACEGLALPVFLEHHHHHH | not soluble |
| MGKPTGFLEYTREIPQELSPGDRLRNWDEFHVTMPDKQVETQGARCMDCGTPFCHTGSLISGMASGCPINNLIPEFNDLVYRGLWREALDRLHKTNNFPEFTGRVCPAPCEGSCVLGINNPPVTIKNIEYSIIEKGWQEGWVTPEPPAKRTGKKVAVVGSGPAGLAAAAQLNKAGHWVTVYEREDRPGGLLMYGIPNMKLDKEEVVLRRLNVLEAEGVTFVCNTEIGKDLPPETLLKDYDAVVLCTGATKPRDLAIAGRELEGIHFAMEFLTANTKAILDKTPGPNFISAKDKDVVIIGGGDTGTDCVGTSLRHGCRSLVQLEIMPKPPEERAANNPWPEWPKVYKMDYGQEEAAAVYGHDPRSYLTTATKIEGDDQGRVKAVHTVDVRWEKDGQGRFIPQQVAGTEQVRPAQLVLLAMGFVGPESQLLDAMKLDKDARGNIKAEYGQYETSIPGVFAAGDCRRGQSLVVWAFNEGRGAAKACDLYLMGETDLPLEHHHHHH | not soluble |
| MGKTYNVTRIIKLEVRDRIIPPTMKLPEGVVTSIGSNLTITCRVSLRLPTTDADVFWISNGMYYEEEDEDGDGRISVANKIYMTDKRRVITSWLNINPVKEEDATTFTCMAFTIPSISKTVTVSIT | not soluble |
| MGLCISKHSGSSYSYSDRDHWEVPVNPSNVRAVSSHQTASASDRASDKVDERPATFSHFQLARCGEDYTLSMVSLAAYQAERRHRGNLIKDRSQSALPWVQVYHSETGLNYSFQIDRTTTVKVAGFNYNVPNDGKTRHLYSAGTSQVNMPVIADNMSACIAVACAAENVDAGTG | not soluble |
| MGLELPLILGTSSVFRREQMERLGIAFQAASPDFDETPMLGESAPQTALRLAEGKARSLTGRFPEALIVGADQVAWCDGRQWGKPMNLANAQKMLMHLSGREIEFYSAIVLLNTVTGRMRRHIDKTVVVMRQLDELHILRYLEREPDAVYCSCALKSEDLGALLIERIESTDPNALIGLPVFRLVDFLKNEGVEVL | not soluble |
| MGLFDRLKRVVGANVNDLINKAEDPEKMLEQAILEMQEDLVQLRQGVAQAIAAQKRTEKQYNDAQNEINKWDRNARLALQKGDENLARQALERKKSFTDTSTSLKTSLDQQTIQVDTLKKNLIQLESKISEAKTKKEMLKARITAAKAQEQLGSMVVSMNSSSAMAAFERMEEKVLMQEARAQSTAELVGADLETQFAQLESGSDVDDELAALKASMLPPAPAPQGQLPPSQATTAKPTEPIDSDLEALKRQLDQM | not soluble |
| MGLSTSNKPLSERIEESKKDVFMQKAVAKAQDAQWEKREGAREALGNWPQWRELGEQIRQHTIQYLPDYLEEFSDNVAKRGGKVFFAQTAEEANEYVKQVVLEKKAKKIVKSKSMVTTEVDIDPMLLGLDDVSVMETDLAEFILQMDDWDEPSHIVFPSIHKNREQIRQVFAKKLGYQGDNDPVNLARCAREVMRKFFLEAEIGITGCNFAIADSGLINLNTNEGNADLTISIPKTQIVLMGMERIVPTMREAEVLDNLLARSAVGQNLTTYVTFAGQKNADESDGPEEFHVVILDNGRSKALGTAFQPVLQCIRCGSCLNVCPVYRHIGGHGYGSIYPGPIGAVLSPILGGYKQFGELPYASSLCGACTETCPVKIPLHELLIEHRKVMTDDLKMKHGFEDFQMRMVGKATGSPAMFKAAMKVDHAAAGILSKQKDITVENMYNHGGYLDKGPGLVKGWTDVRDLPRPPKSSENFRSWFKKHQEGEKND | not soluble |
| MGLTFENNTIENFDVQATFGMMNFLEVVAINERDGENNVTEEVREQRVTVYSSKLNDQVEIVIDPDYDVSGINYDDEIELTGNVTARGWLYTFKGYNDNVQTEQAFKVRAAGIKKVGAVKQTQAPQPKEKQENKQ | not soluble |
| MGMAAESQFHVLAVDDSLFDRKLIERLLQKSSCQVTTVDSGSKALEFLGLRQSTDSNDPNAFSKAPVNHQVVEVNLIITDYCMPGMTGYDLLKKVKESSAFRDIPVVIMSSENVPARISRCLEEGAEEFFLKPVRLADLNKLKPHMMKTKLKNQKLEEIETTSKVENGVPTAVADPEIKDSTNIEIEILPLQQDLLLVQQEEQTLSINNKRKSVEEGISTDRARPRFDGIATAV | not soluble |
| MGMSATMGDSASIPGVFFADFGPAPPEITPEGYHEVELNKTKWVLPQWYNSLKPLGEGAYGVVCTAEYEPTGDRVAIKKFFRPFQSTIHAKRTYRELKLLRTLQHDNVLEMIDVFTPDPDASSLNNVYFVSVLMGSDLQNIMKIQRLTDEQIQLLIYQVLRGLKYIHSAGIIHRDLKPSNIAVNERCEVKVFLSFSQLSFLILSFFKILDFGLARAQDAEMTGYVATRWYRAPEIMLNWMHYTQTVDVWSVGCILAELVSGRPLFPGDDHIDQLTKIMSVVGTPKEEFWSKIQSEEARNYIKNRSPIIRQDFVTLFPMASPYALELLEMMLILDPDRRISVSSALRHDYLREYSVPNDEPVAMDTVINSIVTIDPAEERATTLSDWRELIWNEIRLFQNSARRLSFVSCTDTEEEPMKI | not soluble |
| MGMSSLRDLGLSEYEARAYRSLLETGPTTAKELSRASDVPMGRIYDVLNSLETYNLVRSQTASRPKKYVAVEPDTALDRLLEDKKRELQEKVGQYEEIVDDLSSQLESADPVEEPFWTAAVGPDNSLDLLLERLAAADDEIIMVGSAPARQVDILSGTERIVDELEAALERGVEVSLLVRPDLFESLPEEANREYYERLFHYDNYSARASPNIRTTFELLDGVEVCIEVPHPLGREETFGVIDMKDSDFTADISQAFEEHWAEAKPVGPP | not soluble |
| MGMVSDAVIRHQGKVIAVYPDGILPLEPPRQNASQLYLTSGMDERKRKLIDLGEAFVILAGGFGTMEESFQLLTEMSINQTAVRPVIFVGRKFYQPLFDLLRLQLKEGMISKEVIDAISLVDTAEETIELLGDLKLEQVVLEHHHHHH | not soluble |
| MGNIGSPPKFDEYPNGNEEPRRVLRLNVYFDNPVQNKDGAYDDRGGFWAPVDWWHRDAERWATLFAKGMRVAVRGHLERDDWTDGDGEPHTTYKVDARSVGILPYRLDAVHLSPLEHHHHHH | not soluble |
| MGNIVKPFKQQPSSFAYQPLTVPLIPEVEAQSENLRVFSFKEWMKATKKSRQDRVVIRDDHYIRSFYKGYIDNTTFAPSRTKTGTPVSVVEYLHGSSQALQEWVDIFGVILLELLVGSQDRSTALKNQSSDWTGSFLPDNYKIGEIIDPRIGSDYPVDAATKIGLGPNVRCPYIGHRDMDKC | soluble |
| MGNKLFVLDLGEIRVDENFIIANSTFVTPQKPTVSSRLIDIPVSAYLIQCTDATVLYDTGCHPECMGTNGRWPAQSQLNAPYIGASECNLPERLRQLGLSPDDISTVVLSHLHNDHAGCVEYFGKSRLIAHEDEFATAVRYFATGDHSSPYIVKDIEAWLATPRNWDLVGRDERERELAPGVNLLNFGTGHASGMLGLAVRLEKQPGFLLVSDACYTATNYGPPARRAGVLHDTIGYDRTVSHIRQYAESRSLTVLFGHDREQFASLIKSTDGFYE | soluble |
| MGNMWGKNRGAVERFQTRREALFDDFKSRSAPASLVNNPRIVKGNETAEQIETTFNEILKLDLIALKSALQTDKYNAYTVLCAFVWRAIDVNSEINCITEVIREAFNTAEALDDNYAQTGEKGQLFGLPFSVKSNFYMENYDVTVGLAKLLEQPKTTTCPMVQFLSDQGAVPFCLTNVPQGLLSYVSSNPIYGTTKNPWDFSRTPGGSSGGEAALLAAGGAAFGIGSDLAGSLRIPAAFCGLVTLKPTQDRLCVTDTHGGLPGRGRLGLSFGFYTRSVKEQEFLLGLIVGRSEYLELCPMSSPAKLEKHIEKDQKLVIGWFVDDGFNPVVPSNRRAVEETVKSLQAKGHQVVELKLADVSEEFPPFAVADMLFRNVMPDNGAYMSEMYAGEQYDEHMKLFIRLVCLKQNFLVSFLLRYGVMPFAKLALSKRLACIGSAYNSDLAACRQNQENTDSYKLQWIRYWKSKKIDALICPSFITPAQPFEYPAQLSNGAFITGLFNMLDVPAGVVPVSPVNQKDVDQLIDGFSTEGDLLLKKQREAARGTTGLPNAVQVVTLPNCEEMCLRVMRLVEESAEGVQRLQWRVGASAAPIDVENTPAGVVSSLEHFERVNLLH | not soluble |
| MGNTDKLMNQIFELKFTSKSLQRQARKCEKEERSEKLKVKKAIEKGNMDGARIYAENAIRKRSEQMNYLRLSSRLDAVVARLDTQAKMATITKSMTNIVKSLESSLTTGNLQKMSETMDSFEKQFVNMEVQAEFMDNAMAGSTSLSTPEGEVNSLMQQVADDYGLEVSVGLPQPAGHAIPTKTEEKVEEDDLTRRLAELKARG | not soluble |
| MGPNHPCGYLPGRDARFTYVSPAYPLSPQSYRGLLEEGFRRSGNWVYRPCCIGCSACLPVRLPVHDFRLTRSHRRVIKRNADIDIRVSVARFDERQFQLYVRYLAARHPLEHHHHHH | not soluble |
| MGQNQFRWSNEQLREHVEVIDGTRSPHIVLRNATYLNSYIREWMQANIWIYDDRIIYVGEKLPEQLHECEVIDCDGKYVVPSYIEPHAHPYQLYNPETLANHAMQFGTTTFINDNLTLFFTLKRELEHHHHHH | not soluble |
| MGRFHRHDDGTVHSHDHDHHGHSHDVGDHSGYETGRERIEVLEDIFHENDHCAADNKELFDAHQVRCINIMSSPGAGKTTVLQHVLRAAEGKVRVGVVEGDIETSLDADRLTGFGAQISLLNTGNGFGGECHLDAPMVSRALRGLDLDTLDVVLIENVGNLVCPAEFEVGEHSKAMIYSVTEGEDKPLKYPVMFRSVDAVVINKIDLLPYLDFDMELFMKNLRQVNPDAKVFEVSAKTGEGLDGWIEWLVGAK | not soluble |
| MGSDKIHHHHHHAACSNDEKITESTPKTVALTVKLPEFGGASSRAIDPETTTGNKVTINGPVKIIARVSQGGAITNTISENITAGSMSTITVSGAAQWIEVEANGDNSTETDNVNTRQGSATSSKVRLFGGATINPGSGGNATCTPTISPDMARVEVKGSLGTSWTHLTDLKVKGIYINNIKLTRGVSSLTRIASAAWNTEYAPSGKFEKMFNDNLGGVGAGAGVAQITPGQADGYNFFPQKDNTLPLPTTKEDVMKNSIHIIMEVEFTRADGVPVVGPQWLNVVALKDNTATNYITDFEAGNVYSIDLADIKDIMDVPVPPVTPNPDPETVSVDLTVSIGQWTVVQVKPEV | not soluble |

Reference: the DeepSol protein solubility set
